Assay results: the supplement of paper PMC9170038

system: K4 kissing-loop RNA reporter; assay: apparent KD of K4 kissing-loop reporter; higher = weaker reporter binding; settings: Eterna round: R107; input ligand: theophylline 20 uM
Description: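 RNA-MaP round R107: designed RNA switches with theophylline, tryptophan, arginine or FMN aptamers are transcribed on-chip within common flanks. They are titrated with a labelled K4 kissing-loop RNA reporter in RNA-MaP buffer (100 mM Tris pH 7.5, 80 mM KCl, 4 mM MgCl2), without ligand or with the indicated ligand. Median apparent KD per design.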
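Also: bound reporter read as fluorescence of individual clusters on recovered sequencing chips by microscopy, with normalized cluster intensities fitted with a binding model.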

Sequence | apparent KD of K4 kissing-loop reporter [µM]
CGCCGGAAGGCGAGCGCUCCCACUCCGGAAGGAGCGCCCGGAAGGGCAGGUAGGUCGCCGGAGUGAUGUUCCGGUGGAGGGCUCG [#2 Exclusion - Arginine A Attempt #11 (Inspired by Omei)] | 0.0993
GAGAUGCACCAGUCUUAACGUGACUUAUCCCGAGGACCGGUACGGCCGCCACUCGCGUACUACUAGUGAUGUUGGUCAGUAUGAG [theeternabot_sameState_KL_Trp_A_26] | 0.223
CGCUGGGCGAGUGAUGUUCGCUCACGUGAUACCAGUGCAAUCCAACACCCUUGGCAGCACGCGGGCAGUGAUGUUGUCCUUAGUG [Exclusion Theophylline A GF12] | 0.143
CUCGAGUGAUGUUCGAUUAUUUAUACAGAUACCAGUGAAUUUUAACACCCUUGGCAGCUGGUUGUAUCAUUGUUUUUUACAAAAG [JR_ExcTheophyA_Sub007] | 0.195
CAUCUGGACCAAGGAUAUGUGGGCAUAAUAAAAUUACCACCUUAUUUGCAGUAAGUGAUGUUUAACACAGAAGGUGGACAUAGAC [theeternabot_exclusion_KL_FMN_B_10] | 0.701
GGACGCCGGUCGGCCGCCACUCACAGCAGUGAUGUUCCUGAGAAUGUAGCGGAGUGAUGUUCCGAGAGGACCGGGACUGCAGUUU [Same State Tryptophan B GF 8] | 0.875
GUUGAUCAUGGAAGGAGCGCCCAUUGUCGACACGAGUGAUGUUCGUGUCGUUAAUUAUGAGGGCAGGUAGGUCGCCGUGUGCUUU [Soqugebi] | 0.115
UGACUGGAUGGAAGGAGCGCUAAACUCCUAGUGAUGUUAGGGAUAUGAGGCAAAGCCUUGAAGCAGGUAGGUCGCCAUCUAGUCU [FiskerMod 26 - Jieux - Same State - Arginine B] | 0.146
AGACUACCACACUGUCAAUAGACAGUGAGCUAGGAUAUGCUGAUAAGCAGAAGGAGUGAUGUUCCCAGGUAGUCAAUAAAAUAAU [FmnAX 13 G29+C66] | 0.302
GCUAAGUGAUGUUUAUGCCGCCGACCGGAUACCAGCUACUAGGCAAGCCCUUGGCAGCCGCUAUGUGACCGAUCAUUAGUUAUGU [theeternabot_exclusion_KL_Theo_A_6] | 0.79
CGAGUGAUGUUCGUUUUUUUAUUUUUUUGACAGGAUAUGCGGAAACGCAGAAGGGUCACCUUUGAGUUAAAAGAAUUUAAAUUAU [Ex FMN A 23] | 0.213

same assay, conditions: Eterna round: R107; input ligand: tryptophan 2.4 mM

Sequence | apparent KD of K4 kissing-loop reporter [µM]
AGUACAAUGGCGGCCGCCACUCAACGCAGAUCAAAGAUCUGCGUUCACUCAGUGAUGUUGAGUGAGAGGACCGGGCCUUUGUACA [Omei KL Tryp B SS B v5] | 0.141
UGUCAUUGGUCGGCCGCCACUGAAAUAAAAGAGUGAUGUUCUUAAAAGACGGACAAAGUCUGUCAUAGGACCGGGACCGAUGACU [TrypBS 24 #SwitchBubble #StaticStem] | 0.38
UAUUAAUUGUCAGGAUAUCGUAUUCGAGUGAUGUUCGUAUAUCGACGAUAGUCGAUAUUAUCUAUACGAGAAGGGACAUUAUUUA [JR_SSFMNB_Sub006] | 0.379
UGCUUUAUCAGAAGGAGCGCGUAAGUUAUACUAAUAAUCAGUGAUGUUGAUAUAUGAUCUUUGCAGGUAGGUCGCUGAUAUAGCU [KL-XARG-B4] | 0.472
UUUAAAUAUAGUGAUGUUAUAUAACAAUGACGAGGACCGGUACGGCCGCCACUCGAGAGAGAUAAUGGUCUUACAAAUGUAAGUC [AstrosSSTryA#8] | 0.399
GGAAUAACCUGGGAUACCAGUCGGAGGACUAGGGAUCGGAGUGAUGUUCUGGGAUGUUUCGGCCCUUGGCAGCUCUGGUUUUCCG [#2 Exclusion - Theophylline B Attempt #1 (HarryS)] | 0.443
AUGACGGGUAGUGAUGUUAUCCACGAUGGGAAGGAUAUCAACCGUGUGAGAAGGUCCUUAUCGGUGCGGCACAUGCAGGUACUAC [theeternabot_sameState_KL_FMN_A_41] | 0.268
UGAUACCAGGCGGCCGCCACUCCUGCAGGUCAAAGACCUGUGAAGCUGGUUCUCCAGUGAUGUUGGAGGACCGGGCCUGGUAUCU [FiskerMod 27 - Jieux - Exclusion - Tryptophan B] | 0.356
AAGGCACGGCUUCGGCCGUGCCAAAUAGAUACCAGCAUAAUAAUAUGCCCUUGGCAGCUAAAUAGAAAUUCAGUGAUGUUGGAUA [SS Theo A Tesla 2.1] | 0.649
AGAUGUUUAGCUCAAAGAACGAAAAUGGAAGGAGCGUGCGAAAGCACAGGUAGGUCGCCAGUGAUGUUGGAACCUGAGCAUCAAA [#SwitchBubble 16 #K4Late] | 0.23
UUAACCAACAGCGAUACCAGCGUGGAGUGAUGUUCCGAGGAUCGGAGUGAUGUUCCGAAGCGCCCUUGGCAGCGCAGAAGCGCAA [Exclusion Theophylline B GF8] | 0.255
ACCUACCAUUAGUGAUGUUAAUGGACGGAAGGAGCGCAGAUAUCUGCAGGUAGGUCGCCGAAGGCUAGACAUUGUCUAGCCAUUA [AK1.1 SS Arginine A] | 0.183
CCUAUCUCUUACGAUACCAGUCAAUGAUAUUUUAUCAAUGCCCUCACCGAGUGAUGUUCGGACCCUUGGCAGCGUAUGGGAUAGG [kjnjmullin] | 0.188
GUUACGCAUGGAAGGAGCGCGAAUUUAAUUAGUGAGUGAUGUUCACAUAAAAUGUAUAAUACGCAGGUAGGUCGCCAUGUGUAAC [whbob_Ex_Arginine_B_2th163] | 0.0813
UCCUGCAAUCCACCACGAAAGUGGAUGGAUACCAGAGUCGAAAGACUCCCUUGGCAGCCAGUGAUGUUGGAGCAGGUAAAAUAAA | 0.473
AGUUAUGUAUCAGGAUAUUAGUGAUGUUUGUUUUUGUUAGUGAUGUUGAUAUUUGUUUUAUGUAUUUAAGAAGGGAUUGAGAUGU [qsszmullin] | 0.0524
ACAGGAUCGAAGAUCCUGAGCAGUCAAAACCGAGGACCGGUACGGCCGCCACUCGGAGUGAUGUUCCGAAGACUGCAAAAUAAAA [#SwitchBubble 3] | 0.692
AAAUAAAGCAGUCACCCAGUGAUGUUGGAAGGAGCGUGCGAAAGCACAGGUAGGUCGCCAAAAUAAAGUGGCUGCGGCAAAGCCA [#SwitchBubble 25 #K4Early] | 0.305
GCCAGAGCGCGAAGGAGCGCCCUGACAGGUUGCUGCCGUGGGCAGUGAUGUUGCUCAGUCCGGCAGGUAGGUCGCGUGCUCUGGC | 0.174
UGUCAUUGGUCGGCCGCCACUUCAAGGUCAAAGACCAAAGAGUGAUGUUCUAAGACGAAAGUCAGAAGGACCGGGACCGAUGACU [TrypBS 10 #SwitchBubble #K4Middle] | 1.22
ACGCAUGGGCAAGGAUAUGGUAGUGAUGUUACCUUUGCGGUGCCGGGAACGAAUGACGGUCAUGCGCCAGAAGGUGCUCAGACAA [theeternabot_exclusion_KL_FMN_B_23] | 0.183

Sequence | apparent KD of K4 kissing-loop reporter [µM]
AACUCUCAGACACUUGAGUGAUGUUCAGGCCGAGGACCGGUACGGCCGCCACUCGGGUCUGAGAGAGGUUAUCAAAGAUAGCCAA [Omei KL Tryp A SS A v5] | 0.273
AAAUAGAUCAGUCAACCAGUGAUGUUGGAAGGAGCGUGCGAAAGCACAGGUAGGUCGCCAUAAUAAAAUUGGCUGAUCAAAAUAA | 0.344
ACUGAGUUGACGAAAGUCAACAAUUGAGAAGGAGCGCACGAAAGUGCAGGUAGGUCGCUCAGUCCAGUGAUGUUGGAUCAUCAGA [#17 K4 Arginine A Same State] | 0.275
AAGUGAUGUUGUAGUGAUGUUGUGAUGUUGCAGGAUAUAUAGUGAUGUAGAAGGGUAUGUGCAGUGUUCUUAUUUGAGUGUUGAU [zffdmullin] | 0.064
AGAGAUAAGGCGGCCGCCACUAAGAUGAAACUAACGGUCAAGUGAUGUUUGCGGUUACAGUUCAGUAGGACCGGGCCGAGUAAAU [theeternabot_sameState_KL_Trp_B_47] | 0.357
CCCAAGGGCCUACCGGUAUUAUUAACGGAUACCAGAGGCGAAAGCCUCCCUUGGCAGCCGGGUGUAGUGAUGUUACUCCGGUAGU | 0.0781
CAGCCCAAAUGGCGAGAAGUGUUCCUUAGUCGAGGACCGGUACGGCCGCCACUCGCUCUAAACAUUAGGAGUGAUGUUCCAUUAG | 0.0906
CCAUCGCUAUUCGAUACCAGCUCCUUAGUGAUGUUAAGGUUUUACCCUCUGUAGGAGGGAAGCCCUUGGCAGCGAGUAGUGAUGG [#03 K4 Theophylline B Same State] | 1.37
UAUAUAGUGAUGUUAUAUGGGAAGGAGUUACGAGGACCGGUACGGCCGCCACUCGAAACGAGUGAGGAUUUGGGAGAUUGGGUUU [SSTryptA.S] | 0.232
AUUAAUUUCAGAGGAUAUCGUUAUUUUUUUUAUUUUAUUCAUUUAUGCAGUGAUGUUGCUAUUAUUCGAGAAGGCUGAUUUAUAA [JR_ExcFMNB_Sub005] | 0.0741
CGCCGGAAGGCGAGCGCUCCCACUCCGGAAGGAGCGCCCGGAAGGGCAGGUAGGUCGCCGGAGUGAUGUUCCGGUGGAGGGCUCG [#2 Exclusion - Arginine A Attempt #11 (Inspired by Omei)] | 0.0999
GAGAUGCACCAGUCUUAACGUGACUUAUCCCGAGGACCGGUACGGCCGCCACUCGCGUACUACUAGUGAUGUUGGUCAGUAUGAG [theeternabot_sameState_KL_Trp_A_26] | 0.235
CGCUGGGCGAGUGAUGUUCGCUCACGUGAUACCAGUGCAAUCCAACACCCUUGGCAGCACGCGGGCAGUGAUGUUGUCCUUAGUG [Exclusion Theophylline A GF12] | 0.127
CUCGAGUGAUGUUCGAUUAUUUAUACAGAUACCAGUGAAUUUUAACACCCUUGGCAGCUGGUUGUAUCAUUGUUUUUUACAAAAG [JR_ExcTheophyA_Sub007] | 0.1
CAUCUGGACCAAGGAUAUGUGGGCAUAAUAAAAUUACCACCUUAUUUGCAGUAAGUGAUGUUUAACACAGAAGGUGGACAUAGAC [theeternabot_exclusion_KL_FMN_B_10] | 0.822
GGACGCCGGUCGGCCGCCACUCACAGCAGUGAUGUUCCUGAGAAUGUAGCGGAGUGAUGUUCCGAGAGGACCGGGACUGCAGUUU [Same State Tryptophan B GF 8] | 0.84
GUUGAUCAUGGAAGGAGCGCCCAUUGUCGACACGAGUGAUGUUCGUGUCGUUAAUUAUGAGGGCAGGUAGGUCGCCGUGUGCUUU [Soqugebi] | 0.128
UGACUGGAUGGAAGGAGCGCUAAACUCCUAGUGAUGUUAGGGAUAUGAGGCAAAGCCUUGAAGCAGGUAGGUCGCCAUCUAGUCU [FiskerMod 26 - Jieux - Same State - Arginine B] | 0.142
AGACUACCACACUGUCAAUAGACAGUGAGCUAGGAUAUGCUGAUAAGCAGAAGGAGUGAUGUUCCCAGGUAGUCAAUAAAAUAAU [FmnAX 13 G29+C66] | 0.238
GCUAAGUGAUGUUUAUGCCGCCGACCGGAUACCAGCUACUAGGCAAGCCCUUGGCAGCCGCUAUGUGACCGAUCAUUAGUUAUGU [theeternabot_exclusion_KL_Theo_A_6] | 0.682
CGAGUGAUGUUCGUUUUUUUAUUUUUUUGACAGGAUAUGCGGAAACGCAGAAGGGUCACCUUUGAGUUAAAAGAAUUUAAAUUAU [Ex FMN A 23] | 0.193
